# Article PMC12201654, “Circovirus Rep evades immune restriction by disrupting cGAS oligomerization and phase separation” (PLOS Pathogens, 2025)
# T1: pcGAS full length (pig (porcine), UniProt I3LM39 1-495)
# T1 sequence: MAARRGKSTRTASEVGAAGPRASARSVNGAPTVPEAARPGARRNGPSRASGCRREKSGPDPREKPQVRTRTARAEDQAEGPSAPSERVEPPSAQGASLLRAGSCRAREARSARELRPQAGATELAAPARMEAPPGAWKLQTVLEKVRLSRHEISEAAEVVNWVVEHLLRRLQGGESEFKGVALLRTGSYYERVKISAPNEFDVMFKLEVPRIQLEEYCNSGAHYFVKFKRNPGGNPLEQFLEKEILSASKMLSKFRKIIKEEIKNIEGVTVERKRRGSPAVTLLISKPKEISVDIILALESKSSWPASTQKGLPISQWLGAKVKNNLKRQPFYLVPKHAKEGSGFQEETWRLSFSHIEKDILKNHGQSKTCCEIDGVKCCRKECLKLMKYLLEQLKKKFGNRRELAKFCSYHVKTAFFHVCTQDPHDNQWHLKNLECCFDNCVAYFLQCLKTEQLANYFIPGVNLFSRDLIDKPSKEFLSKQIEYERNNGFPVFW
# T2: PCV2a Rep (Porcine circovirus 2a, UniProt Q77Q74 1-314)
# T2 sequence: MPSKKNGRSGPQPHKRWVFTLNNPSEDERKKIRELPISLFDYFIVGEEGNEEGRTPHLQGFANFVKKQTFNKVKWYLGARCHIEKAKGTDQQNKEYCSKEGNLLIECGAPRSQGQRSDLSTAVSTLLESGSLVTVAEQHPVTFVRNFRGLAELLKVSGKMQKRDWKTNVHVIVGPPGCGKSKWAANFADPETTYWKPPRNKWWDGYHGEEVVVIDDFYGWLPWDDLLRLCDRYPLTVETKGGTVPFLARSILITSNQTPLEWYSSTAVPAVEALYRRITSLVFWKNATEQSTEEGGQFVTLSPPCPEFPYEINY
# T3: SUMO-PCV4 Rep-Myc (Porcine circovirus 4, UniProt A0A7M4CFI7 1-296)
# T3 sequence: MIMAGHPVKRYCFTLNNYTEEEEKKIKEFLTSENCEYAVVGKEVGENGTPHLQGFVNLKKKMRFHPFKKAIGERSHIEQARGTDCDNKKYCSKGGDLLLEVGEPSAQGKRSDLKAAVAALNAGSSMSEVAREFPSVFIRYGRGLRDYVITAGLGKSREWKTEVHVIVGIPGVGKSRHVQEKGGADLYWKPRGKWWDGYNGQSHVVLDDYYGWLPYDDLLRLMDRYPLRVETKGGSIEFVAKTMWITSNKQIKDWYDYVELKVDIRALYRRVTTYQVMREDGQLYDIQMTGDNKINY
# Key:
# pcGAS full length = molecular target: T1, pcGAS full length; test: MST; Pull-down: IP lysis buffer 4 h at 4 C (lysates) or NP-40 buffer 6 h at 4 C (recombinant), biotin-HSV60 40 ug/mL; MST buffer not given; phase separation 50-300 mM NaCl; conditions: protein: recombinant; label: Cy5; blunt
# PCV2a Rep = molecular target: T2, PCV2a Rep; test: as above; conditions: protein: recombinant; tags: C-terminal Myc; His6-SUMO removed per Methods; label: Cy5; blunt
# SUMO-PCV3 Rep-Myc = SUMO-PCV3 Rep-Myc (Porcine circovirus 3, UniProt A0ACM8RHE8 1-296); test: pull-down; Pull-down: IP lysis buffer 4 h at 4 C (lysates) or NP-40 buffer 6 h at 4 C (recombinant), biotin-HSV60 40 ug/mL; MST buffer not given; phase separation 50-300 mM NaCl; conditions: protein: recombinant; tags: His6-SUMO, C-terminal Myc; label: 5'-biotin; blunt
# SUMO-PCV4 Rep-Myc = molecular target: T3, SUMO-PCV4 Rep-Myc; test: as above; conditions: protein: recombinant; tags: His6-SUMO, C-terminal Myc; label: 5'-biotin; blunt
# [1] = molecular target: the molecule itself; test: cross-linking; recombinant pcGAS (5 ug), bound to ISD45 dsDNA, alone or with recombinant Rep proteins (5, 10, 15 ug) in cGAMP synthesis buffer (20 mM HEPES pH 7.5, 5 mM MgCl2, 2 mM ATP, 2 mM GTP), 25°C 15 min, then DSS 0.5 mM for 10 min; non-reducing loading buffer, immunoblot
binder,measurement,setting,value
Cy5-HSV60 (dsDNA) DNA 1: TAAGACACGATGCGATAAAATCTGTTTGTAAAATTTATTAAGGGTACAAATTGCCCTAGC DNA 2: GCTAGGGCAATTTGTACCCTTAATAAATTTTACAAACAGATTTTATCGCATCGTGTCTTA,Kd,pcGAS full length,0.68 µM
same,Kd,PCV2a Rep,11.1 µM
biotin-HSV60 (dsDNA) DNA 1: TAAGACACGATGCGATAAAATCTGTTTGTAAAATTTATTAAGGGTACAAATTGCCCTAGC DNA 2: GCTAGGGCAATTTGTACCCTTAATAAATTTTACAAACAGATTTTATCGCATCGTGTCTTA,binding result,SUMO-PCV3 Rep-Myc,binds
same,binding result,SUMO-PCV4 Rep-Myc,binds
"porcine cGAS (pcGAS), recombinant full-length protein (natural protein, cyclic GMP-AMP synthase (cGAS), porcine, full length; identifier not given; also called porcine cyclic GMP-AMP synthase; pcGAS full length; source: recombinant protein, stored in our laboratory) MAARRGKSTRTASEVGAAGPRASARSVNGAPTVPEAARPGARRNGPSRASGCRREKSGPDPREKPQVRTRTARAEDQAEGPSAPSERVEPPSAQGASLLRAGSCRAREARSARELRPQAGATELAAPARMEAPPGAWKLQTVLEKVRLSRHEISEAAEVVNWVVEHLLRRLQGGESEFKGVALLRTGSYYERVKISAPNEFDVMFKLEVPRIQLEEYCNSGAHYFVKFKRNPGGNPLEQFLEKEILSASKMLSKFRKIIKEEIKNIEGVTVERKRRGSPAVTLLISKPKEISVDIILALESKSSWPASTQKGLPISQWLGAKVKNNLKRQPFYLVPKHAKEGSGFQEETWRLSFSHIEKDILKNHGQSKTCCEIDGVKCCRKECLKLMKYLLEQLKKKFGNRRELAKFCSYHVKTAFFHVCTQDPHDNQWHLKNLECCFDNCVAYFLQCLKTEQLANYFIPGVNLFSRDLIDKPSKEFLSKQIEYERNNGFPVFW",binding result,[1],binds
